Data on 1 protein can be found in article PMC3229241, “Neoamphimedine Circumvents Metnase-Enhanced DNA Topoisomerase IIα Activity Through ATP-Competitive Inhibition” (2011).

Substrate in this data set: Nc1ncnc2c1ncn2[C@@H]1O[C@H](COP(=O)(O)OP(=O)(O)OP(=O)(O)O)[C@@H](O)[C@H]1O
Put plainly: malachite green ATP hydrolysis assay, Michaelis-Menten Km. It is filed as biochemical, Homo sapiens. Particulars: Mg2+ N-terminal ATPase site.

B1: Type IIα DNA topoisomerase (TopoIIα) (Homo sapiens) (protein)
chain: MEVSPLQPVNENMQVNKIKKNEDAKKRLSVERIYQKKTQLEHILLRPDTYIGSVELVTQQMWVYDEDVGINYREVTFVPGLYKIFDEILVNAADNKQRDPKMSCIRVTIDPENNLISIWNNGKGIPVVEHKVEKMYVPALIFGQLLTSSNYDDDEKKVTGGRNGYGAKLCNIFSTKFTVETASREYKKMFKQTWMDNMGRAGEMELKPFNGEDYTCITFQPDLSKFKMQSLDKDIVALMVRRAYDIAGSTKDVKVFLNGNKLPVKGFRSYVDMYLKDKLDETGNSLKVIHEQVNHRWEVCLTMSEKGFQQISFVNSIATSKGGRHVDYVADQIVTKLVDVVKKKNKGGVAVKAHQVKNHMWIFVNALIENPTFDSQTKENMTLQPKSFGSTCQLSEKFIKAAIGCGIVESILNWVKFKAQVQLNKKCSAVKHNRIKGIPKLDDANDAGGRNSTECTLILTEGDSAKTLAVSGLGVVGRDKYGVFPLRGKILNVREASHKQIMENAEINNIIKIVGLQYKKNYEDEDSLKTLRYGKIMIMTDQDQDGSHIKGLLINFIHHNWPSLLRHRFLEEFITPIVKVSKNKQEMAFYSLPEFEEWKSSTPNHKKWKVKYYKGLGTSTSKEAKEYFADMKRHRIQFKYSGPEDDAAISLAFSKKQIDDRKEWLTNFMEDRRQRKLLGLPEDYLYGQTTTYLTYNDFINKELILFSNSDNERSIPSMVDGLKPGQRKVLFTCFKRNDKREVKVAQLAGSVAEMSSYHHGEMSLMMTIINLAQNFVGSNNLNLLQPIGQFGTRLHGGKDSASPRYIFTMLSSLARLLFPPKDDHTLKFLYDDNQRVEPEWYIPIIPMVLINGAEGIGTGWSCKIPNFDVREIVNNIRRLMDGEEPLPMLPSYKNFKGTIEELAPNQYVISGEVAILNSTTIEISELPVRTWTQTYKEQVLEPMLNGTEKTPPLITDYREYHTDTTVKFVVKMTEEKLAEAERVGLHKVFKLQTSLTCNSMVLFDHVGCLKKYDTVLDILRDFFELRLKYYGLRKEWLLGMLGAESAKLNNQARFILEKIDGKIIIENKPKKELIKVLIQRGYDSDPVKAWKEAQQKVPDEEENEESDNEKETEKSDSVTDSGPTFNYLLDMPLWYLTKEKKDELCRLRNEKEQELDTLKRKSPSDLWKEDLATFIEELEAVEAKEKQDEQVGLPGKGGKAKGKKTQMAEVLPSPRGQRVIPRITIEMKAEAEKKNKKKIKNENTEGSPQEDGVELEGLKQRLEKKQKREPGTKTKKQTTLAFKPIKKGKKRNPWSDSESDRSSDESNFDVPPRETEPRRAATKTKFTMDLDSDEDFSDFDEKTDDEDFVPSDASPPKTKTSPKLSNKELKPQKSVVSDLEADDVKGSVPLSSSPPATHFPDETEITNPVPKKNVTVKKTAAKSQSSTSTTGAKKRAAPKGTKRDPALNSGVSQKPDPAKTKNRRKRKPSTSDDSDSNFEKIVSKAVTSKKSKGESDDFHMDFDSAVAPRAKSVRAKKPIKYLEESDEDDLF
notes: recombinant human TopoIIα
For the protein B1, the Michaelis constant (Km) was 390 ± 50 µM.

What is called Km is the concentration of substrate that gives half-maximal velocity.
